Test results published in article PMC8885691, “Leveraging the multivalent p53 peptide-MdmX interaction to guide the improvement of small molecule inhibitors” (Nature Communications, 2022).

Target: p53-binding domain of human MdmX (N-MdmX, amino acids 22-110) (human) (UniProt O15151)
Test: ITC; ITC-200 at 25 °C; 19 injections of 2.0 µL of ~0.2 mM ligand into ~10–20 µM protein in the cell; one-set-of-binding-sites model

p53-binding domain of human MdmX (N-MdmX, amino acids 22-110) (human), sequence (O15151 22-110): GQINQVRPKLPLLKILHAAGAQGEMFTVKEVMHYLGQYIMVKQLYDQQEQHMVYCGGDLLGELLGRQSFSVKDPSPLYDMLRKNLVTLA

With “p53 transactivation domain peptide (p53p)” the Kd was 360 nM.
